{"source": "patent US11015206B2", "about": "“Compositions and methods comprising sequences having hydroxyphenylpyruvate dioxygenase (HPPD) activity” (PIONEER HI-BRED INTERNATIONAL, INC., priority 2014, dated 2021)", "format_in_all_cases": "biochemical, Z. mays", "key": {"[1]": {"tested_on": "4-hydroxyphenylpyruvate dioxygenase (HPPD)", "experiment": "HPPD activity coupled assay with HGD; substrate saturation kinetic parameters (kcat, KM)", "conditions": "substrate saturation kinetic analysis", "procedure,_shortened": "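Coupled continuous assay: His-tagged HPPD (5 to 240 nM, E. coli-expressed, Ni-NTA-purified) with 50 nM P. aeruginosa HGD in 25 mM Hepes pH 7, 2 mM ascorbate, 10 μM FeSO4; maleylacetoacetate followed at 320 nm. KM and Vmax from Lineweaver-Burke fits over 3.33–100 μM HPP.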"}, "[2]": {"tested_on": "4-hydroxyphenylpyruvate dioxygenase (HPPD)", "experiment": "ON rate ratio: HPPD reaction rate with vs without inhibitor in the 70 to 90 second interval", "conditions": "for ON rate ratio: Table 7, tembotrione, combinatorial variants; for Insensitivity, isoxaflutole (DKN), Rate ratio ON: inhibitor diketonitrile form of isoxaflutole (DKN); for Insensitivity, mesotrione, Rate ratio ON: inhibitor mesotrione; for Insensitivity, sulcotrione, Rate ratio ON: inhibitor sulcotrione; for Insensitivity, tembotrione, Rate ratio ON: inhibitor tembotrione; for Insensitivity, topramezone, Rate ratio ON: inhibitor topramezone", "procedure,_shortened": "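Indicator of inhibitor on-rate: reaction velocity in the 70 to 90 second window with 4 μM inhibitor divided by that without. Reactions contained 100 μM HPP and 60 or 120 nM HPPD; slower binding gives a larger ratio.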"}, "[3]": {"tested_on": "4-hydroxyphenylpyruvate dioxygenase (HPPD)", "experiment": "Insensitivity parameter (ON × OFF) and trait fitness (ON × OFF × kcat/KM or × kcat)", "design": "key to ON × OFF / Insensitivity, mesotrione, ON × OFF / Insensitivity, tembotrione, ON × OFF / Insensitivity, topramezone, ON × OFF / Insensitivity, sulcotrione, ON × OFF / Insensitivity, isoxaflutole (DKN), ON × OFF: insensitivity = ON rate ratio × OFF rate ratio (surrogate for KD)", "conditions": "for Insensitivity, isoxaflutole (DKN), ON × OFF / Insensitivity, isoxaflutole (DKN), Trait fitness: inhibitor diketonitrile form of isoxaflutole (DKN); for Insensitivity, mesotrione, ON × OFF / Insensitivity, mesotrione, Trait Fitness: inhibitor mesotrione; for Insensitivity, sulcotrione, ON × OFF / Insensitivity, sulcotrione, Trait fitness: inhibitor sulcotrione; for Insensitivity, tembotrione, ON × OFF / Insensitivity, tembotrione, Trait fitness: inhibitor tembotrione; for Insensitivity, topramezone, ON × OFF / Insensitivity, topramezone, Trait Fitness: inhibitor topramezone", "procedure,_shortened": "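Trait fitness combines catalysis and insensitivity as kcat/KM × ON rate ratio × OFF rate ratio. The insensitivity parameter is the product of ON and OFF rate ratios, used in place of KD because the ON rate ratio is inverse.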"}, "[4]": {"tested_on": "4-hydroxyphenylpyruvate dioxygenase (HPPD)", "experiment": "Estimate of kcat from initial rate at saturating hydroxyphenylpyruvate without inhibitor (ON rate ratio assay)", "procedure,_shortened": "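kcat was estimated from the initial reaction rate with known enzyme level (60 or 120 nM HPPD). Hydroxyphenylpyruvate was at a saturating 100 μM, with no inhibitor present.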"}, "[5]": {"conditions": "Table 7, tembotrione, combinatorial variants"}, "[6]": {"conditions": "Table 7, combinatorial variants"}}}
{"molecule": "P056028-B-09 (protein, Zea mays variant form created by artificial means.) MGPTPTATAAGAAVAAASAAEQAAFRLVGHRNFVRFNPRSDRFQTLAFHHVELWCADAASAAGRFSFALGVPLAARSDLSTGNSAHASLLLRSGSLSLLFTAPYAHGADAATAALPSFSAAAARRFAADHGLAVRAVALRVADAEDAFRASVAAGARPAFGPVDLGRGFRLAEVELYGDVVLRYVSYPDGAAGEPFLPGFEGVASPGAADYGLSRFDHIVGNVPELAPAAAYMAGFTGFHEFAEFTTEDVGTTESGLNSMALANNSENVLLPLNEPVHGTKRRSQIQTFLDHHGGPGVQHIALASDDVLRTLREMRARSAMGGFEFLPPPLSDYYDDVRRCAGDVLTEAQINECQELGVMVDRDDEGVLLQIFTKPVGDRPTFFLEIIQRIGCVEKDEKGQEYQKGGCGGFGKGNFGQLFKSIEDYEKSLEAKRAAAAATAQGS", "values": [{"measurement": "Km", "setting": "[1]", "result": 3, "unit": "µM"}, {"measurement": "kcat", "setting": "[1]", "result": 1.55, "unit": "s⁻¹"}, {"measurement": "ON rate ratio", "setting": "[2]", "result": 0.648}, {"measurement": "Insensitivity, isoxaflutole (DKN), Rate ratio ON", "setting": "[2]", "result": 0.77}, {"measurement": "Insensitivity, mesotrione, Rate ratio ON", "setting": "[2]", "result": 0.67}, {"measurement": "Insensitivity, sulcotrione, Rate ratio ON", "setting": "[2]", "result": 0.78}, {"measurement": "Insensitivity, tembotrione, Rate ratio ON", "setting": "[2]", "result": 0.75}, {"measurement": "Insensitivity, topramezone, Rate ratio ON", "setting": "[2]", "result": 0.80}, {"measurement": "ON × OFF", "setting": "[3]; Megatable 3, shuffled variants", "result": 0.121}, {"measurement": "ON × OFF × kcat", "setting": "[3]; Megatable 3, shuffled variants", "result": 4.19}, {"measurement": "ON × OFF", "setting": "[3]; [5]", "result": 0.121}, {"measurement": "ON × OFF × kcat", "setting": "[3]; [5]", "result": 4.19}, {"measurement": "Insensitivity, isoxaflutole (DKN), ON × OFF", "setting": "[3]", "result": 0.25}, {"measurement": "Insensitivity, isoxaflutole (DKN), Trait fitness", "setting": "[3]", "result": 7.93}, {"measurement": "Insensitivity, mesotrione, ON × OFF", "setting": "[3]", "result": 0.67}, {"measurement": "Insensitivity, mesotrione, Trait Fitness", "setting": "[3]", "result": 21.2}, {"measurement": "Insensitivity, sulcotrione, ON × OFF", "setting": "[3]", "result": 0.68}, {"measurement": "Insensitivity, sulcotrione, Trait fitness", "setting": "[3]", "result": 21.6}, {"measurement": "Insensitivity, tembotrione, ON × OFF", "setting": "[3]", "result": 0.26}, {"measurement": "Insensitivity, tembotrione, Trait fitness", "setting": "[3]", "result": 8.28}, {"measurement": "Insensitivity, topramezone, ON × OFF", "setting": "[3]", "result": 0.38}, {"measurement": "Insensitivity, topramezone, Trait Fitness", "setting": "[3]", "result": 12.12}, {"measurement": "kcat", "setting": "[4]; Megatable 3, shuffled variants", "result": 0.575, "unit": "s⁻¹"}, {"measurement": "kcat", "setting": "[4]; [6]", "result": 0.575, "unit": "s⁻¹"}]}
{"molecule": "9070Q366E (protein, Zea mays variant form created by artificial means.) MGPTPTATAAGAAVAAASAAEQAAFRLVGHRNFVRFNPRSDRFQTLAFHHVELWCADAASAAGRFSFALGVPLAARSDLSTGNSAHASLLLRSGSLSLLFTAPYAHGADAATAALPSFSAAAARRFAADHGLAVRAVALRVADAEDAFRASVAAGARPAFGPVDLGRGFRLAEVELYGDVVLRYVSYPDGAAGEPFLPGFEGVASPGAADYGLSRFDHIVGNVPELAPAAAYMAGFTGFHEFAEFTTEDVGTTESGLNSMALANNSENVLLPLNEPVHGTKRRSQIQTFLDHHGGPGVQHIALASDDVLRTLREMRARSAMGGFEFLPPPLSDYYDGVRRCAGDVLTEAQINECQELGVMVDRDDEGVLLQIFTKPVGDRPTFFLEIIQRIGCMEKDEKGQEYQKGGCGGFGKGNFGQLFKSIEDYEKSLEAKQAAAAATAQGS", "values": [{"measurement": "Km", "setting": "[1]", "result": 1.57, "unit": "µM"}, {"measurement": "kcat", "setting": "[1]", "result": 0.513, "unit": "s⁻¹"}, {"measurement": "ON rate ratio", "setting": "[2]", "result": 0.760}, {"measurement": "Insensitivity, isoxaflutole (DKN), Rate ratio ON", "setting": "[2]", "result": 0.83}, {"measurement": "Insensitivity, mesotrione, Rate ratio ON", "setting": "[2]", "result": 0.72}, {"measurement": "Insensitivity, sulcotrione, Rate ratio ON", "setting": "[2]", "result": 0.80}, {"measurement": "Insensitivity, tembotrione, Rate ratio ON", "setting": "[2]", "result": 0.82}, {"measurement": "Insensitivity, topramezone, Rate ratio ON", "setting": "[2]", "result": 0.81}, {"measurement": "ON × OFF", "setting": "[3]; Megatable 3, shuffled variants", "result": 0.208}, {"measurement": "ON × OFF × kcat", "setting": "[3]; Megatable 3, shuffled variants", "result": 4.18}, {"measurement": "ON × OFF", "setting": "[3]; [5]", "result": 0.208}, {"measurement": "ON × OFF × kcat", "setting": "[3]; [5]", "result": 4.18}, {"measurement": "Insensitivity, isoxaflutole (DKN), ON × OFF", "setting": "[3]", "result": 0.17}, {"measurement": "Insensitivity, isoxaflutole (DKN), Trait fitness", "setting": "[3]", "result": 3.40}, {"measurement": "Insensitivity, mesotrione, ON × OFF", "setting": "[3]", "result": 0.72}, {"measurement": "Insensitivity, mesotrione, Trait Fitness", "setting": "[3]", "result": 14.0}, {"measurement": "Insensitivity, sulcotrione, ON × OFF", "setting": "[3]", "result": 0.50}, {"measurement": "Insensitivity, sulcotrione, Trait fitness", "setting": "[3]", "result": 9.69}, {"measurement": "Insensitivity, tembotrione, ON × OFF", "setting": "[3]", "result": 0.27}, {"measurement": "Insensitivity, tembotrione, Trait fitness", "setting": "[3]", "result": 5.25}, {"measurement": "Insensitivity, topramezone, ON × OFF", "setting": "[3]", "result": 0.26}, {"measurement": "Insensitivity, topramezone, Trait Fitness", "setting": "[3]", "result": 5.04}, {"measurement": "kcat", "setting": "[4]; Megatable 3, shuffled variants", "result": 0.335, "unit": "s⁻¹"}, {"measurement": "kcat", "setting": "[4]; [6]", "result": 0.335, "unit": "s⁻¹"}]}
{"molecule": "P056028-A-01 (protein, Zea mays variant form created by artificial means.) MGPTPTATAAGAAVAAASAAEQAAFRLVGHRNFVRFNPRSDRFQTLAFHHVELWCADAASAAGRFSFALGVPLAARSDLSTGNSAHASLLLRSGSLSLLFTAPYAHGADAATAALPSFSAAAARRFAADHGLAVRAVALRVADAEDAFRASVAAGARPAFGPVDLGRGFRLAEVELYGDVVLRYVSYPDGAAGEPFLPGFEGVASPGAADYGLSRFDHIVGNVPELAPAAAYMAGFTGFHEFAEFTTEDVGTTESGLNSMALANNSENVLLPLNEPVHGTKRRSQIQTFLDHHGGPGVQHIALASDDVLRTLREMRARSAMGGFEFLPPPLSDYYDGVRRCAGDVLTEAQINECQELGVMVDRDDEGVLLQIFTKPVGDRPTFFLEIIQRIGCMEKDEKGQEYQKGGCGGFGKGNFGQLFKSIEDYEKSLEAKRAAAAATAQGS", "values": [{"measurement": "Km", "setting": "[1]", "result": 2.49, "unit": "µM"}, {"measurement": "kcat", "setting": "[1]", "result": 1.21, "unit": "s⁻¹"}, {"measurement": "ON rate ratio", "setting": "[2]", "result": 0.697}, {"measurement": "Insensitivity, isoxaflutole (DKN), Rate ratio ON", "setting": "[2]", "result": 0.82}, {"measurement": "Insensitivity, mesotrione, Rate ratio ON", "setting": "[2]", "result": 0.67}, {"measurement": "Insensitivity, sulcotrione, Rate ratio ON", "setting": "[2]", "result": 0.80}, {"measurement": "Insensitivity, tembotrione, Rate ratio ON", "setting": "[2]", "result": 0.84}, {"measurement": "Insensitivity, topramezone, Rate ratio ON", "setting": "[2]", "result": 0.85}, {"measurement": "ON × OFF", "setting": "[3]; Megatable 3, shuffled variants", "result": 0.173}, {"measurement": "ON × OFF × kcat", "setting": "[3]; Megatable 3, shuffled variants", "result": 6.78}, {"measurement": "ON × OFF", "setting": "[3]; [5]", "result": 0.173}, {"measurement": "ON × OFF × kcat", "setting": "[3]; [5]", "result": 6.78}, {"measurement": "Insensitivity, isoxaflutole (DKN), ON × OFF", "setting": "[3]", "result": 0.36}, {"measurement": "Insensitivity, isoxaflutole (DKN), Trait fitness", "setting": "[3]", "result": 10.45}, {"measurement": "Insensitivity, mesotrione, ON × OFF", "setting": "[3]", "result": 0.67}, {"measurement": "Insensitivity, mesotrione, Trait Fitness", "setting": "[3]", "result": 19.6}, {"measurement": "Insensitivity, sulcotrione, ON × OFF", "setting": "[3]", "result": 0.97}, {"measurement": "Insensitivity, sulcotrione, Trait fitness", "setting": "[3]", "result": 28.4}, {"measurement": "Insensitivity, tembotrione, ON × OFF", "setting": "[3]", "result": 0.36}, {"measurement": "Insensitivity, tembotrione, Trait fitness", "setting": "[3]", "result": 10.43}, {"measurement": "Insensitivity, topramezone, ON × OFF", "setting": "[3]", "result": 0.51}, {"measurement": "Insensitivity, topramezone, Trait Fitness", "setting": "[3]", "result": 14.86}, {"measurement": "kcat", "setting": "[4]; Megatable 3, shuffled variants", "result": 0.652, "unit": "s⁻¹"}, {"measurement": "kcat", "setting": "[4]; [6]", "result": 0.652, "unit": "s⁻¹"}]}
